T1: recombinant non-structural protein 1 of West Nile Virus (West Nile Virus, UniProt P06935 788-1139)
T1 construct: domain: NS1; also called rNS1 WNV
T1 sequence: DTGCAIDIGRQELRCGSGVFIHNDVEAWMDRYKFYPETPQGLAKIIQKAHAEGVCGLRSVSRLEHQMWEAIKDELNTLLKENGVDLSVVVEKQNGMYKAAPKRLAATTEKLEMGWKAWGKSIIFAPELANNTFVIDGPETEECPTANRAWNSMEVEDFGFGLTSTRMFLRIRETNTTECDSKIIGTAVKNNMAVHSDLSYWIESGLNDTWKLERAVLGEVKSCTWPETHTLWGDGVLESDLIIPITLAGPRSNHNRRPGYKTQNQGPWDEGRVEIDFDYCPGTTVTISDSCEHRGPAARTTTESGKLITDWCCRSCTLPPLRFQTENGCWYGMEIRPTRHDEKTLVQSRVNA

T2: recombinant non-structural protein 1 of DENV2 (Dengue virus serotype 2, UniProt P29990 776-1127)
T2 construct: domain: NS1; also called rNS1 DENV2
T2 sequence: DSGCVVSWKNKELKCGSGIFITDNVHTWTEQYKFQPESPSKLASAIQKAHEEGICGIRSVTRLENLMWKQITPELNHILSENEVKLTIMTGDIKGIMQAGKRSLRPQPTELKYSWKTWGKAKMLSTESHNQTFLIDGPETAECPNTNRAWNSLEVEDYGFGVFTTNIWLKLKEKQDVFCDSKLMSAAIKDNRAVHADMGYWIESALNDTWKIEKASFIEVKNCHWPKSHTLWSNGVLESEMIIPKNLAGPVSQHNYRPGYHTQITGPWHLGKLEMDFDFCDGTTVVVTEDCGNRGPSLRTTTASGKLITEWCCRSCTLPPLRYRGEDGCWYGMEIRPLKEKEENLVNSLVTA

T3: recombinant non-structural protein 1 of DENV3 (Dengue virus serotype 3, UniProt Q6YMS4 774-1125)
T3 construct: domain: NS1; also called rNS1 DENV3
T3 sequence: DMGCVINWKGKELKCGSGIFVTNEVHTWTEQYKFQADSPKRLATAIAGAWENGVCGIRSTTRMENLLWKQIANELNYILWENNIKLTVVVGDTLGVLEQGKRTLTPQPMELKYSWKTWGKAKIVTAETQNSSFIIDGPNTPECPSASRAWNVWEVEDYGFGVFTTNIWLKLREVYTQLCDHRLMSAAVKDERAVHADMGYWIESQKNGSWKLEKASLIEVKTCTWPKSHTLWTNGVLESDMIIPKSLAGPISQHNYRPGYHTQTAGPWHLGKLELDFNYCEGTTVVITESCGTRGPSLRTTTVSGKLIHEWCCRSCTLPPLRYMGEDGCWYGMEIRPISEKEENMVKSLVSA

T4: recombinant non-structural protein 1 of DENV1 (Dengue virus serotype 1, UniProt P17763 776-1127)
T4 construct: domain: NS1; also called rNS DENV1; rNS1 DENV1
T4 sequence: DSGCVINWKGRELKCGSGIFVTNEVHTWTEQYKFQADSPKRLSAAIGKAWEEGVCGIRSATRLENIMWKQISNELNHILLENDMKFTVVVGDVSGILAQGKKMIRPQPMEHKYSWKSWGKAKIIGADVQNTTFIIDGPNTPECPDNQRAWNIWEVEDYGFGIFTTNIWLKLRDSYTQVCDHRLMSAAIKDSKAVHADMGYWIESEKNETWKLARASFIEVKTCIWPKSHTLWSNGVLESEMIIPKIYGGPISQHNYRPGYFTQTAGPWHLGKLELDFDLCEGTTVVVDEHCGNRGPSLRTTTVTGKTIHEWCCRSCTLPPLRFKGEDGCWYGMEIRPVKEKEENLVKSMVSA

T5: native NS1 on the surface of DENV2-infected Vero cells (Dengue virus serotype 2, UniProt P29990 776-1127)
T5 construct: domain: NS1; also called DENV2 (Cell-Based ELISA)
T5 sequence: T2 sequence

T6: native NS1 on the surface of DENV3-infected Vero cells (Dengue virus serotype 3, UniProt Q6YMS4 774-1125)
T6 construct: domain: NS1; also called DENV3 (Cell-Based ELISA)
T6 sequence: T3 sequence

T7: native NS1 on the surface of DENV1-infected Vero cells (Dengue virus serotype 1, UniProt P17763 776-1127)
T7 construct: domain: NS1; also called DENV1 (Cell-Based ELISA)
T7 sequence: T4 sequence

T8: native NS1 in culture supernatant of DENV2-infected Vero cells (Dengue virus serotype 2, UniProt P29990 776-1127)
T8 construct: domain: NS1
T8 sequence: T2 sequence

T9: native NS1 in culture supernatant of DENV3-infected Vero cells (Dengue virus serotype 3, UniProt Q6YMS4 774-1125)
T9 construct: domain: NS1
T9 sequence: T3 sequence

T10: native NS1 in culture supernatant of DENV1-infected Vero cells (Dengue virus serotype 1, UniProt P17763 776-1127)
T10 construct: domain: NS1
T10 sequence: T4 sequence

B1: MAb 3H7A9 (antibody, V domains shown)
VH: EVQLQQSGAELVKPGASVKLSCTASGFNIKDTYMHWVKQRPEQGLEWIGRIDPANGNTQYGPKFQGKATITADTSSNTAYLQLSSLTSEDTAVYYCARGGIFYYYGSSYSYAMDYWGQGTSVTVSS
VL: DIQMTQTTSSLSASLGDRVTISCRASQDISNYLNWYQQKPDGTVTLLIYYTSRLHSGVPSRFSGSGSGTDYSLTISNLEQEDIATYFCQQGNTLPRTFGGGTKLEIK
B2: MAb 8A6F2 (antibody, V domains shown)
VH: DVQLQESGPDLVKPSQSLSLTCTVTGYSITSGYNWHWIRQFPGNKLEWMGYIHYSGGTNYNPSLKSRISITRDTSKNQFFLQLNSVTTEDTATYYCARRTGTVPFAYWGQGTLVTVSA
VL: EIVLTQSPALMAASPGEKVTITCSVSSSISSSNLHWYQQKSETSPKPWIYGTSNLASGVPVRFSGSGSGTSYSLTISSMEAEDAATYYCQQWSSYPLTFGGGTKLEIK
B3: MAb 6D4B10 (antibody, V domains shown)
VH: EVQLQQSGPELVKPGASVKMSCKASGYTFTSYVMHWVKQKPGQGLEWIGYLNPYNDDTKYNEKFKGKATLTSDKSSSTAYMELSSLTSEDSAVYYCAYGPPYALDYWGQGTSVTVSS
VL: QIVLTQSPAIMTASLGERVTMTCTASSSVSSSYLHWYQQKPGSSPKLWIYSTSNLASGVPARFSGSGSGTSYSLTISSMEAEDAATYYCHQYHRSPYTFGGGTKLEIK

These binders were tested against T1, recombinant non-structural protein 1 of … (assay: iELISA, FIG. 4 legend).

Row | Binder | OD value (450 nm)
1 | B1 | < 0 OD
2 | B2 | < 0 OD
3 | B3 | < 0 OD

What follows are binders tested against T2, recombinant non-structural protein 1 of … (assay: iELISA, FIG. 4 legend).

Row | Binder | OD value (450 nm)
4 | B1 | < 0 OD
5 | B2 | < 0 OD
6 | B3 | < 0 OD

These binders were tested against T11, recombinant SUMO protein (small-ubiquitin-like modifier) (assay: iELISA, FIG. 4 legend).
T11 construct: also called SUMO* tag

Row | Binder | OD value (450 nm)
7 | B1 | < 0 OD
8 | B2 | < 0 OD
9 | B3 | < 0 OD

The binders below were run against T3, recombinant non-structural protein 1 of … (assay: iELISA, FIG. 4 legend).

Row | Binder | OD value (450 nm)
10 | B1 | < 0 OD
11 | B2 | < 0 OD
12 | B3 | < 0 OD

Each binder was assayed against T4, recombinant non-structural protein 1 of … (assay: iELISA, FIG. 4 legend).

Row | Binder | OD value (450 nm)
13 | B1 | < 0 OD
14 | B2 | < 0 OD
15 | B3 | < 0 OD

Each binder was assayed against T12, recombinant non-structural protein 1 of Yellow Fever Virus (Yellow Fever Virus, UniProt P03314 779-1130) (assay: iELISA, FIG. 4 legend).
T12 construct: domain: NS1; also called rNS1 YFV

Row | Binder | OD value (450 nm)
16 | B1 | < 0 OD
17 | B2 | < 0 OD
18 | B3 | < 0 OD

What follows are binders tested against T1, recombinant non-structural protein 1 of … (assay: iELISA on recombinant protein).

Row | Binder | binding result
19 | B1 | no binding
20 | B2 | no binding
21 | B3 | no binding

Each binder was assayed against T2, recombinant non-structural protein 1 of … (assay: iELISA on recombinant protein).

Row | Binder | binding result
22 | B1 | no binding
23 | B2 | no binding
24 | B3 | no binding

Each binder was assayed against T3, recombinant non-structural protein 1 of … (assay: iELISA on recombinant protein).

Row | Binder | binding result
25 | B1 | no binding
26 | B2 | no binding
27 | B3 | no binding

What follows are binders tested against T4, recombinant non-structural protein 1 of … (assay: iELISA on recombinant protein).

Row | Binder | binding result
28 | B1 | no binding
29 | B2 | no binding
30 | B3 | no binding

Each binder was assayed against T12, recombinant non-structural protein 1 of … (assay: iELISA on recombinant protein).

Row | Binder | binding result
31 | B1 | no binding
32 | B2 | no binding
33 | B3 | no binding

Each binder was assayed against T5, native NS1 on the surface of … (assay: cell-based ELISA on infected Vero cells).

Row | Binder | binding result
34 | B1 | no binding
35 | B2 | no binding
36 | B3 | no binding

What follows are binders tested against T6, native NS1 on the surface of … (assay: cell-based ELISA on infected Vero cells).

Row | Binder | binding result
37 | B1 | no binding
38 | B2 | no binding
39 | B3 | no binding

These binders were tested against T7, native NS1 on the surface of … (assay: cell-based ELISA on infected Vero cells).

Row | Binder | binding result
40 | B1 | no binding
41 | B2 | no binding
42 | B3 | no binding

Each binder was assayed against T8, native NS1 in culture supernatant of … (assay: iELISA on Vero cell culture supernatant).

Row | Binder | binding result
43 | B1 | no binding
44 | B2 | no binding
45 | B3 | no binding

These binders were tested against T9, native NS1 in culture supernatant of … (assay: iELISA on Vero cell culture supernatant).

Row | Binder | binding result
46 | B1 | no binding
47 | B2 | no binding
48 | B3 | no binding

These binders were tested against T10, native NS1 in culture supernatant of … (assay: iELISA on Vero cell culture supernatant).

Row | Binder | binding result
49 | B1 | no binding
50 | B2 | no binding
51 | B3 | no binding
